Reference: the DeepSol protein solubility set

assay: soluble on expression in E. coli; label from the status in PepcDB or PDB records

Q: With “MRNFTRTLEPEGITEMPQEGLRFVVQHHLARRDHYDLRLEWDGAMLSWAVPKGPSYNTWDKRLAVQVEDHPLEYRHFEGTIPKGEYGGGVVMLWDEGFWEPYVDVDGGLHEGMLKFVLKGRRLKGRWALVRMKGKAGDKKDNWLLLKEKDDYVQTADGISQFTTSLEHHHHHH” as the sequence, how does the “soluble on expression in E. coli” value read?
A: soluble

Q: For “MRNRTLADLDRVVALGGGHGLGRVLSSLSSLGSRLTGIVTTTDNGGSTGRIRRSEGGIAWGDMRNCLNQLITEPSVASAMFEYRFGGNGELSGHNLGNLMLKALDHLSVRPLEAINLIRNLLKVDTHLIPMSEHPVDLMAIDDQGHEVYGEVNIDQLTTPIQELLLTPNVPATREAVHAINEADLIIIGPGSFYTSLMPILLLKEIAQALRRTPAPMVYIGNLGRELSLPAANLKLESKLAIMEQYVGKKVIDAVIVGPKVDVSAVKERIVIQEVLEASDIPYRHDRQLLHNALEKALQALGLEHHHHHH”, which “soluble on expression in E. coli” value is on record?
A: not soluble

Q: With “MRNVFCIGELLIDFVCRNTNVSLVNGSNFEKKAGGAPANVAAAITKLGGHATFMGQVGNDPFGEFLEQTLQHAHVDTSMLIKDKQTTLAFVSIDQNGERDFTFMRGADGEYHFNSIDLSKIKTNDLIHFGSATALLSSPLKDTYFQLLQHARESGQFISFDPNYRNALITNTEQFIQDCLTFIKHAHFVKVSQEEAIMLSKESDLQQSALKLLNHGAKAVAITLGKDGTLLATKDKQTIVPSISIQQVDTTGAGDAFVGAMLYQIAKSEQMFLHNFEGLTTFISFANKVGALTCTNYGAISSLPSLTDVKAYE” as the sequence, how does the “soluble on expression in E. coli” value read?
A: not soluble

Q: Which “soluble on expression in E. coli” value does the source give for “MRPKKDGLEDFLRLTPEIKKQLGSLVSDYCNVLNKEFTAGSVEITLRSYKICKAFINEAKAHGREWGGLMATLNICNFWAILRNNRVRRRAENAGNDACSIACPIVMRYVLDHLIVVTDRFFIQAPSNRVMIPATIGTAMYKLLKHSRVRAYTYSKVLGVDRAAIMASGKQVVEHLNRMEKEGLLSSKFKAFCKWVFTYPVLEEMFQTMVSSKTGHLTDDVKDVRALIKTLPRASYSSHAGQRSYVSGVLPACLLSTKSKAVETPILVSGADRMDEELMGNDGGASHTEARYSESGQFHAFTDELESLPSPTMPLKPGAQSADCGDSSSSSSDSGNSDTEQSEREEARAEAPRLRAPKSRRTSRPNRGQTPCPSNAAEPEQPWIAAVHQESDERPIFPHPSKPTFLPPVKRKKGLRDSREGMFLPKPEAGSAISDVFEGREVCQPKRIRPFHPPGSPWANRPLPASLAPTPTGPVHEPVGSLTPAPVPQPLDPAPAVTPEASHLLEDPDEETSQAVKALREMADTVIPQKEEAAICGQMDLSHPPPRGHLDELTTTLESMTEDLNLDSPLTPELNEILDTFLNDECLLHAMHISTGLSIFDTSLF” here?
A: not soluble

Q: With “MRPLLLLALLGWLLLAEAKGDAKPEDNLLVLTVATKETEGFRRFKRSAQFFNYKIQALGLGEDWNVEKGTSAGGGQKVRLLKKALEKHADKEDLVILFTDSYDVLFASGPRELLKKFRQSRSQVVFSAEELIYPDRRLETKYPVVSDGKRFLGSGGFIGYAPNLSKLVAEWEGQDSDSDQLFYTKIFLDPEKREQINITLDHRCRIFQNLDGALDEVVLKFEMGHVRARNLAYDTLPVLIHGNGPTKLQLNYLGNYIPRFWTFETGCTVCDEGLRSLKGIGDEALPTVLVGVFIEQPTPFVSLFFQRLLRLHYPQKHMRLFIHNHEQHHKAQVEEFLAQHGSEYQSVKLVGPEVRMANADARNMGADLCRQDRSCTYYFSVDADVALTEPNSLRLLIQQNKNVIAPLMTRHGRLWSNFWGALSADGYYARSEDYVDIVQGRRVGVWNVPYISNIYLIKGSALRGELQSSDLFHHSKLDPDMAFCANIRQQDVFMFLTNRHTLGHLLSLDSYRTTHLHNDLWEVFSNPEDWKEKYIHQNYTKALAGKLVETPCPDVYWFPIFTEVACDELVEEMEHFGQWSLGNNKDNRIQGGYENVPTIDIHMNQIGFEREWHKFLLEYIAPMTEKLYPGYYTRAQFDLAFVVRYKPDEQPSLMPHHDASTFTINIALNRVGVDYEGGGCRFLRYNCSIRAPRKGWTLMHPGRLTHYHEGLPTTRGTRYIAVSFVDP” as the sequence, how does the “soluble on expression in E. coli” value read?
A: not soluble

Q: With “MRPQQLHATEITSSGFRLAWPPLLTADSGYYVLELVPSAQPGAARRQQLPGNATDWIWAGLDPDTDYDVALVPESNVRLLRPQILRVRTRPGEAGPGASGPESGAGPAPTQLAALPAPEEAGPERIVISHARPRSLRVSWAPALGSAAALGYHVQFGPLRGGEAQRVEVPAGRNCTTLQGLAPGTAYLVTVTAAFRSGRESALSAKACTPDGPRPRPRPVPRAPTPGTASREP” as the sequence, how does the “soluble on expression in E. coli” value read?
A: soluble

Q: Which “soluble on expression in E. coli” value does the source give for “MRPVYFLSDFGLEDPYVAVVKAVLAERAPGPAVVDLAHALPPQDLRRAAYALFEALPYLPEGAVVLAVVDPGVGTARRAVAALGRWTYVGPDNGLFTLAWLLDPPRRAFLLEPPRPRPKAALPGWAPGEATFHGRDVFAPAAAHLALGLPPEGLGPEVPVETLARLPLALTEGPEGEVLTFDRFGNAITTLLRAPVGGFVEVGGRRVPVRRTFGEVPEGAPVAYLGSAGLLEVAVNRGSAREALGLKEGMPVRLL” here?
A: soluble

Q: With “MRPYIINQTEQAQARFGINNDFPVNVILMQPTTSHETFLEGSDYVDFESTSKLRNWPIIVGNQKYFVDPAIFARNSDYFRILMENKFFLEGAIKQLNILDESPEDILKLITVISPNSLGLYPDVIDEQNVCTVLRLCDKYLMTNLKQNCVDYLKDYNPDSREPTDIFHLFYHLCFSLNAEYEHDHSLADVALEAMFVCLVELFNSTNVTKFYRFLIELQRKSGEKDSENLKRVTDAVLHGGSIFKHRISFSEEVQGLGCHQCSMRPPARQSRSKNRKSFVLYLCKSCNREVCVQCRRSLCSRLFEDWINELRS” as the sequence, how does the “soluble on expression in E. coli” value read?
A: not soluble

Q: For “MRQHAAPCTQLITWSIEMDNALDFLLEQAQESEDKAVLALSKARSELDSYYHQLRQIEQYRLEYCQQLVERGKSGLTASQYGHLNRFLTQLDETLAKQKSAEQHFRLQVENCEQHWMNMRQKRKSYQWLMEKKQTERQLLQEKREQKQMDEFSTLMFNRRRLSS”, which “soluble on expression in E. coli” value is on record?
A: not soluble

Q: With “MRQIKVVLIGGGTGLSVMARGLREFPIDITAIVTVADNGGSTGKIRDEMDIPAPGDIRNVIAALSDSESVLSQLFQYRFEENQISGHSLGNLLIAGMTNITNDFGHAIKALSKILNIKGRVIPSTNTSVQLNAVMEDGEIVFGETNIPKKHKKIDRVFLEPNDVQPMEEAIDALREADLIVLGPGSLYTSVISNLCVNGISDALIHSDAPKLYVSNVMTQPGETDGYSVKDHIDAIHRQAGQPFIDYVICSTQTFNAQVLKKYEEKHSKPVEVNKAELEKESINVKTSSNLVEISENHLVRHNTKVLSTMIYDIALELISTIPFVPSDKRKLEHHHHHH” as the sequence, how does the “soluble on expression in E. coli” value read?
A: soluble

Q: With “MRQIQSIRLIDVLELAFGVGYKEETTSQFSSDQPSQVVLYRGEANTVRFAYTNQMSLMKDIRIALDGSDKSLTAQIVPGMGHVYEGFQTSARGIFTMSGVPESTVPVANPNVQTKYIRYFKVIDDMHNTMYKGTVFLVQPQAWKYTMKSVDQLPVDDLNHIGVAGIERMTTLIKNAGALLTTGGSGAFPDNIKVSINPKGRQATITYGDGSTDIIPPAVLWKKGSVKEPTEADQSVGTPTPGIPGKFKRDQSLNEHEAMVNVEPLSHVVKDNIKVIDEKSTGRFEPFRPNEDEKEKPASDVKVRPAEVGSWLEPATALPSVEMSAEDRLKS” as the sequence, how does the “soluble on expression in E. coli” value read?
A: not soluble

Q: With “MRQNDKIMCILENRKKRDRKNLCRAINDFQQSFQKPETRREFDLSDPLALKKDLPARQSDNDVRNTISGMQKFMGEDLNFHERKKFQEEQNREWSLQQQREWKNARAEQKCAEALYTETRLQFDETAKHLQKLESTTRKAVCASVKDFNKSQAIESVERKKQEKKQEQEDNLAEITNLLRGDLLSENPQQAASSFGPHRVVPDRWKGMTQEQLEQIRLVQKQQIQEKLRLQEEKRQRDLDWDRRRIQGARATLLFERQQWRRQRDLRRALDSSNLSLAKEQHLQKKYMNEVYTNQPTGDYFTQFNTGSR” as the sequence, how does the “soluble on expression in E. coli” value read?
A: not soluble

Q: For “MRQVDFSPFYRSTVGFDHLFNWFDSRTQPDDVSSYPPYNIERLSEDSYRISMAVAGFSQDEIDIETHCNQLIVRGERKPENDDEEREFLYRGIASRAFERRFHLADHVKVIGAELGDGLLHIQLKREMPAELKPKKIVVQASSSAVKNGNDHAVRKVSLENERTE”, which “soluble on expression in E. coli” value is on record?
A: not soluble

Q: With “MRRIGAITALSLPVLLSLLYSCGTGGSASKEEILSKKEHNPEPNIPLECYTDTGVVKLGKAIANPCYVCHTKALTPYENEVDDFDLQLVYDFPEEIKEMGNPWLNAIKPELTIGSVPMPSDEEIKTWIRQDNWSKAYAEKGKGELVYFPDIPPIYKYENGSYELINVDKEGFVRDPETGEYTGWRVFKWKPFPGFFPTNGRIDSTFIRLPEKFRKKNGEFDLNLYKKNLAILECAMKGVAPGETCSGTEVGDFIMPFRYEGDASDVEVVVYQYPPGTEFAHPLYYLDPENTLSFKSLRIKEMRYMKKLAYADTRTGTGEEEEEEGTFFWDKGRFFNDSGYWEMRAFIEDKNGYLRPQSPEESKFCIACHGGIGGTVDGTFTLWRKIPGEEGWKEQDYKNIKDYRYKAITCENLDSLEMGEEVKKALEAYCSKVGESPGEYTVYFALTAGGDHFRSNYEILQDISVDGKVDLELLYNPEKIKFIDNSGFIKPELFFPEPERAYGIDKQYYRIVKAQAFIYGRDVFEKAFGISSGGNSLEELDNLESTGVKESGIWNFVKNFLSSE” as the sequence, how does the “soluble on expression in E. coli” value read?
A: not soluble

Q: With “MRRLAWLLPLLLLAGAVGALRYQWLDLPARWNPWLPLDVREPPNLLTRYKLWRLADDRSLCDAALATSQLRYQRVADDPPSATCPLSNSLRVRGAALELSSSFLASCPLAVSYALFERHVLQPAALDIYGQPLARVEHVGSFACRNVYNREDGRRSQHASANALDISGFRLADGRRIRLATDWAGESADGRFLRRVRDGACASFNAVLGPDYNAAHRDHFHLDMGLWKVCRLEHHHHHH” as the sequence, how does the “soluble on expression in E. coli” value read?
A: not soluble

Q: For “MRRSGPELWKTLTSVSKSGQKKGRRNTRQPVRPLNRFYRIGSSPMKIEFAGLNAPIRMRETENQNLMSIAEQTEDEIRDSMGGTKKILEERDTGKKKRNREKLHPMERGFSGTQLVGQKLGAPPPLDGVNFDDFETYCLEVKRTSNMTNVFGRVHTMSALVVTGNGRGLAGYAVGKAPIHRTTTAIINGMGMASRKLFHVELHEGRTIYQDFYAECRNTRVFAQRRPRGFGLTCHPRLIKICEAIGIKDIYVKVEGSTKNYLALTHAFVTGLLNQETHQQLAERKGLHVVEMSPSRHFLPQIVASPISTELKTEETLEALDRLNLDDFYGEGRYPLRKPKSLPFFSNLEGHLDARWRKHPFRNQESTMIRLIADNMVPRWTRDARAAWADQRNERMTTGVEPMPLGIGLSHVVPKKDD”, which “soluble on expression in E. coli” value is on record?
A: not soluble

Q: For “MRRTVRYILATSNPMGDLEALEKFVKLAPDTGADAIALIGNLMPKAAKSRDYAAFFRILSEAHLPTAYVPGPQDAPIWEYLREAANVELVHPEMRNVHETFTFWRGPYLVAGVGGEIADEGEPEEHEALRYPAWVAEYRLKALWELKDYPKIFLFHTMPYHKGLNEQGSHEVAHLIKTHNPLLVLVAGKGQKHEMLGASWVVVPGDLSEGEYSLLDLRARKLETGNVR”, which “soluble on expression in E. coli” value is on record?
A: soluble

Q: For “MRSANHSELSNALLAISQSLADRSQLTQTLDAVLTAARQMTLAKHGIIYVLDQTGQALIPSTAHHNDKTIVSHPWEALQIDSASENDPFNFAIRNGEVVLINELYKYKGYDCESIYQTEQTLGLKSENLLAWPLIDSESKTIGLLVLLDLNVIDNEAALTEFCRMAASNIRQAVWLEQ”, which “soluble on expression in E. coli” value is on record?
A: not soluble
